The results in this text go back to patent US9994644B2, “mAB 2 anti-Met antibody” (Agency for Science, Technology and Research, priority 2013, dated 2018).

Entries after “also recorded” stand apart in the source; their conditions may differ.

Holding throughout (type): cell-based, human
Assay [1] deals with SNU-5 cells. Put plainly: Cell growth by cell count (ADAM cell counter). Particulars: SNU-5, 10 μg/mL mAb, 72 hours post treatment. The procedure:
(§1) In order to determine if these antibodies have any physiological effects on tumour cells, 10 μg/mL of mAb was added to SNU-5 cells. […] This indicates SU11274 mode of mechanism is by activation of caspase which in turn result in apoptosis of SNU-5 tumour cells.
Cells were seeded and treated with anti-α-chain c-Met monoclonal antibodies for 72 hrs. Cells were harvested and counted using the automated ADAM cell counter (Digital Bio, Korea).

Assay [2] has as its system caspase activation in SNU-5 cells. Put plainly: Caspase-Glo 3/7 caspase activation assay. The settings on record: SNU-5, 72 hrs; mAb 10 μg/mL, SU11274 5 μM. The procedure:
as §1
(§2) CellTiter-Glo® luminescent cell viability assay and Caspase-Glo® 3/7 Assay (Promega, U.S.A.) were used to determine cell viability and caspase activation respectively. SNU-5 cells (1×10^5 cells) were seeded in each 96-well and treated for 72 hrs before analysis. Cell viability and caspase activation were performed according to manufacturer's protocol. Luminescence was read using the EnVision plate reader (PerkinElmer, U.S.A.).

Assay [3] deals with SNU-5 cells. The experiment in a line: Cell proliferation by CellTracker Green BODIPY dye retention. Particulars: SNU-5, 10 μg/mL mAb, 6 days. The procedure: CellTracker BODIPY dye is a membrane permeable dye that enters cells freely. Once in the cell, the dye is converted to a membrane impermeable product which labels the cell green. The dye is passed on to dividing daughter cells but is not transferable to neighbouring cells. Dividing cells would fail to retain the green dye as it is being diluted to progeny cells. Cells were treated with 10 μg/mL of monoclonal antibodies for 6 days and dye retention in cells was analysed by flow cytometry.
SNU-5 cells were stained with 5 μM of CellTracker BODIPY dye for 30 mins. Stained cells were seeded and treated with anti-α-chain c-Met monoclonal antibodies for 6 days. Cells were harvested and dye retention in live cells were analysed by flow cytometry.

Assay [4] deals with SNU-5 cells. The experiment in a line: CellTiter-Glo luminescent cell viability assay. Particulars: SNU-5, 72 hrs; mAb 10 μg/mL, SU11274 5 μM. As to the method:
as §1, §2
For orientation: ATP-based viability assays read luminescence as a measure of living cells.

B1: mAb 2: murine bivalent anti-α-chain c-Met monoclonal antibody, IgG1, kappa; CDRs SEQ ID NO: 2-7; epitope IEE and CPDC (antibody, listed as Homo sapiens)
heavy: QVQLKESGGGLVQPGGSLTLSCATSGFTFTDHYMSWVRQPPGKALEWLAFIRNKAKGYTTEYNASVRGRFTISRDNSQNIVYLQMNTLRTEDSATYYCARDGVGIAYWGQTLVTVSAAKTTPPSVYPLAP
light: SIVMTQSPLSLPVSLGDQASISCRSSQSLENINGNTYKNWYFQKPGQSPQLLIYRVSNRVSGVLDRFSGSGSGTDFTLKITRVEAEDLGVYFCLQVTHVPWTFGGGTKLEIKRADAAPTKSIS
On to B1, for which the “cell growth (cell count)” value in assay [1] is “strongest cell growth reduction; also recorded: reduction of SNU-5 cell growth; also recorded: most effective in reducing cell proliferation”. For the same molecule, in assay [2], the caspase activation entry is recorded as “reduced caspase activation; also recorded: do not activate caspase activation”. The “CellTracker Green BODIPY fluorescence retention” value in assay [3] is on record as “retained significant levels of green fluorescence”. For the same molecule, the cell viability result in assay [4] was “reduced cell viability”.
